Source: the Human Domainome abundance scans (Beltran et al. 2025)
± gives the uncertainty stated by the source.

B1: Transcriptional regulator ERG, residues 117 to 197; numbered along this chain, P11308 (parent)
chain: NMTTNERRVIVPADPTLWSTDHVRQWLEWAVKEYGLPDVNILLFQNIDGKELCKMTKDDFQRLTPSYNADILLSHLHYLRE

Variants of: B1
Assay: abundance fitness (aPCA) (normalised: wild type 0, dead -1); higher = more abundant; growth selection in yeast, the domain comes from the species named
Conditions: Homo sapiens

NMSTNERRVIVPADPTLWSTDHVRQWLEWAVKEYGLPDVNILLFQNIDGKELCKMTKDDFQRLTPSYNADILLSHLHYLRE [T3S] and NMITNERRVIVPADPTLWSTDHVRQWLEWAVKEYGLPDVNILLFQNIDGKELCKMTKDDFQRLTPSYNADILLSHLHYLRE [T3I] are within error of each other in abundance fitness: 0.055 ± 0.046 for the first, -0.014 ± 0.08 for the second.

NMATNERRVIVPADPTLWSTDHVRQWLEWAVKEYGLPDVNILLFQNIDGKELCKMTKDDFQRLTPSYNADILLSHLHYLRE [T3A] and NMLTNERRVIVPADPTLWSTDHVRQWLEWAVKEYGLPDVNILLFQNIDGKELCKMTKDDFQRLTPSYNADILLSHLHYLRE [T3L] are within error of each other in abundance fitness: -0.043 ± 0.039 for the first, -0.094 ± 0.046 for the second.

NMMTNERRVIVPADPTLWSTDHVRQWLEWAVKEYGLPDVNILLFQNIDGKELCKMTKDDFQRLTPSYNADILLSHLHYLRE [T3M] and NMNTNERRVIVPADPTLWSTDHVRQWLEWAVKEYGLPDVNILLFQNIDGKELCKMTKDDFQRLTPSYNADILLSHLHYLRE [T3N] are within error of each other in abundance fitness: 0.029 ± 0.067 for the first, -0.025 ± 0.078 for the second.

NMPTNERRVIVPADPTLWSTDHVRQWLEWAVKEYGLPDVNILLFQNIDGKELCKMTKDDFQRLTPSYNADILLSHLHYLRE [T3P] and NMYTNERRVIVPADPTLWSTDHVRQWLEWAVKEYGLPDVNILLFQNIDGKELCKMTKDDFQRLTPSYNADILLSHLHYLRE [T3Y] are within error of each other in abundance fitness: -0.162 ± 0.071 for the first, -0.141 ± 0.078 for the second.

NMFTNERRVIVPADPTLWSTDHVRQWLEWAVKEYGLPDVNILLFQNIDGKELCKMTKDDFQRLTPSYNADILLSHLHYLRE [T3F] and NMKTNERRVIVPADPTLWSTDHVRQWLEWAVKEYGLPDVNILLFQNIDGKELCKMTKDDFQRLTPSYNADILLSHLHYLRE [T3K] are within error of each other in abundance fitness: -0.007 ± 0.073 for the first, -0.109 ± 0.065 for the second.

NMCTNERRVIVPADPTLWSTDHVRQWLEWAVKEYGLPDVNILLFQNIDGKELCKMTKDDFQRLTPSYNADILLSHLHYLRE [T3C] and NMQTNERRVIVPADPTLWSTDHVRQWLEWAVKEYGLPDVNILLFQNIDGKELCKMTKDDFQRLTPSYNADILLSHLHYLRE [T3Q] are within error of each other in abundance fitness: -0.088 ± 0.066 for the first, -0.043 ± 0.059 for the second.

NMRTNERRVIVPADPTLWSTDHVRQWLEWAVKEYGLPDVNILLFQNIDGKELCKMTKDDFQRLTPSYNADILLSHLHYLRE [T3R] and NMHTNERRVIVPADPTLWSTDHVRQWLEWAVKEYGLPDVNILLFQNIDGKELCKMTKDDFQRLTPSYNADILLSHLHYLRE [T3H] are within error of each other in abundance fitness: -0.05 ± 0.036 for the first, -0.127 ± 0.086 for the second.

NMVTNERRVIVPADPTLWSTDHVRQWLEWAVKEYGLPDVNILLFQNIDGKELCKMTKDDFQRLTPSYNADILLSHLHYLRE [T3V] and NMETNERRVIVPADPTLWSTDHVRQWLEWAVKEYGLPDVNILLFQNIDGKELCKMTKDDFQRLTPSYNADILLSHLHYLRE [T3E] are within error of each other in abundance fitness: -0.08 ± 0.044 for the first, -0.045 ± 0.055 for the second.

NMGTNERRVIVPADPTLWSTDHVRQWLEWAVKEYGLPDVNILLFQNIDGKELCKMTKDDFQRLTPSYNADILLSHLHYLRE [T3G] and NMDTNERRVIVPADPTLWSTDHVRQWLEWAVKEYGLPDVNILLFQNIDGKELCKMTKDDFQRLTPSYNADILLSHLHYLRE [T3D] are within error of each other in abundance fitness: -0.022 ± 0.035 for the first, -0.05 ± 0.066 for the second.

NYTTNERRVIVPADPTLWSTDHVRQWLEWAVKEYGLPDVNILLFQNIDGKELCKMTKDDFQRLTPSYNADILLSHLHYLRE [M2Y] and NWTTNERRVIVPADPTLWSTDHVRQWLEWAVKEYGLPDVNILLFQNIDGKELCKMTKDDFQRLTPSYNADILLSHLHYLRE [M2W] are within error of each other in abundance fitness: -0.139 ± 0.11 for the first, -0.17 ± 0.053 for the second.

Compared with NVTTNERRVIVPADPTLWSTDHVRQWLEWAVKEYGLPDVNILLFQNIDGKELCKMTKDDFQRLTPSYNADILLSHLHYLRE [M2V], NMTENERRVIVPADPTLWSTDHVRQWLEWAVKEYGLPDVNILLFQNIDGKELCKMTKDDFQRLTPSYNADILLSHLHYLRE [T4E] is higher in abundance fitness: -0.417 ± 0.054 for the first, 0.035 ± 0.045 for the second.

First: NMTFNERRVIVPADPTLWSTDHVRQWLEWAVKEYGLPDVNILLFQNIDGKELCKMTKDDFQRLTPSYNADILLSHLHYLRE [T4F]
Second: NMTGNERRVIVPADPTLWSTDHVRQWLEWAVKEYGLPDVNILLFQNIDGKELCKMTKDDFQRLTPSYNADILLSHLHYLRE [T4G]
The abundance fitness of the first is higher: 0.079 ± 0.062 for the first, -0.042 ± 0.032 for the second.

NMTNNERRVIVPADPTLWSTDHVRQWLEWAVKEYGLPDVNILLFQNIDGKELCKMTKDDFQRLTPSYNADILLSHLHYLRE [T4N] and NMTPNERRVIVPADPTLWSTDHVRQWLEWAVKEYGLPDVNILLFQNIDGKELCKMTKDDFQRLTPSYNADILLSHLHYLRE [T4P] are within error of each other in abundance fitness: -0.028 ± 0.069 for the first, -0.056 ± 0.056 for the second.

Going from NMTANERRVIVPADPTLWSTDHVRQWLEWAVKEYGLPDVNILLFQNIDGKELCKMTKDDFQRLTPSYNADILLSHLHYLRE [T4A] to NMTDNERRVIVPADPTLWSTDHVRQWLEWAVKEYGLPDVNILLFQNIDGKELCKMTKDDFQRLTPSYNADILLSHLHYLRE [T4D], the abundance fitness rises from -0.099 ± 0.043 to 0.04 ± 0.056.

Going from NMTLNERRVIVPADPTLWSTDHVRQWLEWAVKEYGLPDVNILLFQNIDGKELCKMTKDDFQRLTPSYNADILLSHLHYLRE [T4L] to NMTMNERRVIVPADPTLWSTDHVRQWLEWAVKEYGLPDVNILLFQNIDGKELCKMTKDDFQRLTPSYNADILLSHLHYLRE [T4M], the abundance fitness rises from -0.025 ± 0.044 to 0.146 ± 0.052.

NMTKNERRVIVPADPTLWSTDHVRQWLEWAVKEYGLPDVNILLFQNIDGKELCKMTKDDFQRLTPSYNADILLSHLHYLRE [T4K] and NMTCNERRVIVPADPTLWSTDHVRQWLEWAVKEYGLPDVNILLFQNIDGKELCKMTKDDFQRLTPSYNADILLSHLHYLRE [T4C] are within error of each other in abundance fitness: -0.043 ± 0.058 for the first, -0.018 ± 0.059 for the second.

Going from NMTHNERRVIVPADPTLWSTDHVRQWLEWAVKEYGLPDVNILLFQNIDGKELCKMTKDDFQRLTPSYNADILLSHLHYLRE [T4H] to NMTINERRVIVPADPTLWSTDHVRQWLEWAVKEYGLPDVNILLFQNIDGKELCKMTKDDFQRLTPSYNADILLSHLHYLRE [T4I], the abundance fitness rises from -0.151 ± 0.075 to 0.054 ± 0.086.
